The data set can be described thus: melting temperature; melt of duplexes. The settings on record: sodium 0.0675 M; strand 1 µM.
For orientation: Tm means the temperature at the midpoint of the melting transition. For the substance “CGACGTGCGCGATGTGCTG+CAGCACATTCTGCACGTCG ((((((((...((((((((+))))))))...))))))))”, the Tm was 50.4 °C.

Take “CGACGTGCGTTATGTGCTG+CAGCACATCGCGCACGTCG (((((((((..((((((((+))))))))..)))))))))”: the Tm was determined as 54.6 °C.

As to “CGACGTGCTATATGTGCTG+CAGCACATGCAGCACGTCG (((((((((..((((((((+))))))))..)))))))))”, the Tm came out at 52.5 °C.

Consider “CGACGTGCAACATGTGCTG+CAGCACATCCAGCACGTCG ((((((((...((((((((+))))))))...))))))))”, for which the Tm was determined as 47.1 °C.

Regarding “CGACGTGCCTAATGTGCTG+CAGCACATATCGCACGTCG ((((((((...((((((((+))))))))...))))))))”, the Tm was 47 °C.

On to “CGACGTGCTTGATGTGCTG+CAGCACATCATGCACGTCG ((((((((.((((((((((+)))))))))).))))))))”, for which the Tm was 59.5 °C.

Take “CGACGTGCGATATGTGCTG+CAGCACATTCGGCACGTCG ((((((((...((((((((+))))))))...))))))))”: the Tm was 52.7 °C.

For the substance “CGACGTGCGCGATGTGCTG+CAGCACATTGGGCACGTCG ((((((((.(.((((((((+)))))))).).))))))))”, the Tm is 57.1 °C.

As for “CGACGTGCGGCATGTGCTG+CAGCACATAAGGCACGTCG ((((((((...((((((((+))))))))...))))))))”, the Tm turned out to be 51.3 °C.

For the substance “CGACGTGCCCTATGTGCTG+CAGCACATGGCGCACGTCG ((((((((.(.((((((((+)))))))).).))))))))”, the Tm was determined as 52.9 °C.

On to “CGACGTGCTCCATGTGCTG+CAGCACATCGAGCACGTCG ((((((((((.((((((((+)))))))).))))))))))”, for which the Tm was 55.2 °C.

“CGACGTGCTCAATGTGCTG+CAGCACATTAAGCACGTCG (((((((((.(((((((((+))))))))).)))))))))”: the Tm is 54.4 °C.

With “CGACGTGCACGATGTGCTG+CAGCACATGCAGCACGTCG ((((((((...((((((((+))))))))...))))))))”, the melting temperature (Tm) worked out at 45.9 °C.

In the case of “CGACGTGCAACATGTGCTG+CAGCACATTTCGCACGTCG ((((((((.(.((((((((+)))))))).).))))))))”, the Tm stood at 49 °C.

For the substance “CGACGTGCACTATGTGCTG+CAGCACATCCAGCACGTCG ((((((((...((((((((+))))))))...))))))))”, the Tm amounted to 42.6 °C.

Turning to “CGACGTGCAACATGTGCTG+CAGCACATATGGCACGTCG ((((((((.(.((((((((+)))))))).).))))))))”, the melting temperature (Tm) amounted to 49.2 °C.

Consider “CGACGTGCTCCATGTGCTG+CAGCACATACCGCACGTCG ((((((((...((((((((+))))))))...))))))))”, for which the Tm stood at 46.3 °C.

For “CGACGTGCTGTATGTGCTG+CAGCACATTGCGCACGTCG ((((((((...((((((((+))))))))...))))))))”, the Tm came to 47.9 °C.

In the case of “CGACGTGCTAAATGTGCTG+CAGCACATTTCGCACGTCG ((((((((.((((((((((+)))))))))).))))))))”, the Tm turned out to be 55.3 °C.

As for “CGACGTGCTACATGTGCTG+CAGCACATCCGGCACGTCG ((((((((...((((((((+))))))))...))))))))”, the Tm was found to be 48.7 °C.

For the substance “CGACGTGCGCCATGTGCTG+CAGCACATTTCGCACGTCG (((((((((..((((((((+))))))))..)))))))))”, the Tm amounted to 51.6 °C.

Turning to “CGACGTGCGCTATGTGCTG+CAGCACATGAAGCACGTCG ((((((((...((((((((+))))))))...))))))))”, the Tm came out at 53.9 °C.

With “CGACGTGCGGCATGTGCTG+CAGCACATCAAGCACGTCG ((((((((...((((((((+))))))))...))))))))”, the Tm is 53.6 °C.

Regarding “CGACGTGCGCAATGTGCTG+CAGCACATCCTGCACGTCG ((((((((...((((((((+))))))))...))))))))”, the Tm was determined as 49.2 °C.

As to “CGACGTGCCAGATGTGCTG+CAGCACATGAAGCACGTCG ((((((((...((((((((+))))))))...))))))))”, the Tm was found to be 50.5 °C.

Consider “CGACGTGCCATATGTGCTG+CAGCACATCGTGCACGTCG ((((((((...((((((((+))))))))...))))))))”, for which the Tm was found to be 44.2 °C.

With “CGACGTGCGAAATGTGCTG+CAGCACATTACGCACGTCG (((((((((.(((((((((+))))))))).)))))))))”, the Tm came out at 58.6 °C.

As for “CGACGTGCGCGATGTGCTG+CAGCACATAGCGCACGTCG ((((((((((.((((((((+)))))))).))))))))))”, the Tm worked out at 63 °C.

Take “CGACGTGCTTCATGTGCTG+CAGCACATCGCGCACGTCG ((((((((...((((((((+))))))))...))))))))”: the melting temperature (Tm) came out at 46.2 °C.

As for “CGACGTGCACTATGTGCTG+CAGCACATGCTGCACGTCG (((((((((..((((((((+))))))))..)))))))))”, the melting temperature (Tm) was found to be 45.5 °C.

Turning to “CGACGTGCTTAATGTGCTG+CAGCACATCATGCACGTCG ((((((((.(.((((((((+)))))))).).))))))))”, the Tm is 50.3 °C.

“CGACGTGCAAAATGTGCTG+CAGCACATGCGGCACGTCG ((((((((...((((((((+))))))))...))))))))”: the Tm came to 51.2 °C.

Turning to “CGACGTGCTATATGTGCTG+CAGCACATGCTGCACGTCG ((((((((...((((((((+))))))))...))))))))”, the Tm came to 48.1 °C.

With “CGACGTGCGCCATGTGCTG+CAGCACATCATGCACGTCG ((((((((...((((((((+))))))))...))))))))”, the Tm was 47.8 °C.

For the substance “CGACGTGCACAATGTGCTG+CAGCACATTGTGCACGTCG (((((((((((((((((((+)))))))))))))))))))”, the midpoint of thermal melting (Tm) is 63 °C.

As to “CGACGTGCAAAATGTGCTG+CAGCACATACCGCACGTCG ((((((((...((((((((+))))))))...))))))))”, the Tm was determined as 48.1 °C.

Take “CGACGTGCCGTATGTGCTG+CAGCACATTTAGCACGTCG ((((((((...((((((((+))))))))...))))))))”: the Tm turned out to be 48.4 °C.

On to “CGACGTGCCAGATGTGCTG+CAGCACATCCTGCACGTCG ((((((((..(((((((((+)))))))))..))))))))”, for which the Tm amounted to 54.3 °C.

Turning to “CGACGTGCACCATGTGCTG+CAGCACATCAAGCACGTCG ((((((((...((((((((+))))))))...))))))))”, the Tm turned out to be 42.8 °C.

On to “CGACGTGCATAATGTGCTG+CAGCACATTGGGCACGTCG ((((((((..(((((((((+)))))))))..))))))))”, for which the Tm turned out to be 54.2 °C.

Consider “CGACGTGCCTCATGTGCTG+CAGCACATTGAGCACGTCG ((((((((...((((((((+))))))))...))))))))”, for which the Tm came to 51.4 °C.

“CGACGTGCCCTATGTGCTG+CAGCACATGAAGCACGTCG ((((((((...((((((((+))))))))...))))))))”: the Tm came out at 49 °C.

On to “CGACGTGCAATATGTGCTG+CAGCACATATGGCACGTCG ((((((((.((((((((((+)))))))))).))))))))”, for which the Tm worked out at 55.6 °C.

As to “CGACGTGCTACATGTGCTG+CAGCACATAGGGCACGTCG ((((((((...((((((((+))))))))...))))))))”, the Tm worked out at 50.8 °C.

As for “CGACGTGCATAATGTGCTG+CAGCACATTTCGCACGTCG ((((((((..(((((((((+)))))))))..))))))))”, the Tm stood at 51 °C.

Consider “CGACGTGCAAGATGTGCTG+CAGCACATGCTGCACGTCG (((((((((..((((((((+))))))))..)))))))))”, for which the Tm worked out at 51.1 °C.

In the case of “CGACGTGCACCATGTGCTG+CAGCACATCCAGCACGTCG ((((((((...((((((((+))))))))...))))))))”, the Tm stood at 42.2 °C.

For the substance “CGACGTGCACTATGTGCTG+CAGCACATGAAGCACGTCG ((((((((...((((((((+))))))))...))))))))”, the melting temperature (Tm) turned out to be 45.9 °C.

As to “CGACGTGCTAAATGTGCTG+CAGCACATTGAGCACGTCG (((((((((.(((((((((+))))))))).)))))))))”, the Tm stood at 57.2 °C.

As for “CGACGTGCCCCATGTGCTG+CAGCACATACTGCACGTCG ((((((((...((((((((+))))))))...))))))))”, the Tm was found to be 45.9 °C.

“CGACGTGCGGAATGTGCTG+CAGCACATCTCGCACGTCG (((((((((..((((((((+))))))))..)))))))))”: the Tm was found to be 55.3 °C.

Turning to “CGACGTGCCAGATGTGCTG+CAGCACATGGCGCACGTCG ((((((((...((((((((+))))))))...))))))))”, the Tm was found to be 50.4 °C.

In the case of “CGACGTGCAAGATGTGCTG+CAGCACATGCGGCACGTCG ((((((((...((((((((+))))))))...))))))))”, the Tm turned out to be 50.2 °C.

Regarding “CGACGTGCACAATGTGCTG+CAGCACATGAAGCACGTCG ((((((((...((((((((+))))))))...))))))))”, the Tm was 49.9 °C.

As for “CGACGTGCGTAATGTGCTG+CAGCACATGTCGCACGTCG (((((((((..((((((((+))))))))..)))))))))”, the Tm was 56 °C.

Regarding “CGACGTGCCTCATGTGCTG+CAGCACATATGGCACGTCG (((((((((..((((((((+))))))))..)))))))))”, the Tm turned out to be 54 °C.

As for “CGACGTGCCTCATGTGCTG+CAGCACATCTGGCACGTCG (((((((((..((((((((+))))))))..)))))))))”, the Tm amounted to 52.7 °C.

For “CGACGTGCTACATGTGCTG+CAGCACATCTGGCACGTCG ((((((((.(.((((((((+)))))))).).))))))))”, the Tm was found to be 49.9 °C.

In the case of “CGACGTGCCAGATGTGCTG+CAGCACATTATGCACGTCG ((((((((...((((((((+))))))))...))))))))”, the Tm worked out at 50.5 °C.

Consider “CGACGTGCTAGATGTGCTG+CAGCACATTGTGCACGTCG ((((((((...((((((((+))))))))...))))))))”, for which the Tm is 48.5 °C.

“CGACGTGCGGGATGTGCTG+CAGCACATAACGCACGTCG (((((((((..((((((((+))))))))..)))))))))”: the Tm was 59.4 °C.

For “CGACGTGCCTTATGTGCTG+CAGCACATGAAGCACGTCG ((((((((.(.((((((((+)))))))).).))))))))”, the melting temperature (Tm) came out at 50.5 °C.

Take “CGACGTGCAGTATGTGCTG+CAGCACATTACGCACGTCG ((((((((...((((((((+))))))))...))))))))”: the Tm is 52.1 °C.

Consider “CGACGTGCGATATGTGCTG+CAGCACATTGGGCACGTCG ((((((((...((((((((+))))))))...))))))))”, for which the Tm came to 50.3 °C.

Take “CGACGTGCGGAATGTGCTG+CAGCACATCGAGCACGTCG ((((((((...((((((((+))))))))...))))))))”: the Tm turned out to be 54.6 °C.

Regarding “CGACGTGCTCCATGTGCTG+CAGCACATGTAGCACGTCG (((((((((.(((((((((+))))))))).)))))))))”, the Tm was determined as 56.3 °C.

The values above are taken from the array DNA melting data of Ke et al..
